From patent US20260166139A1 (AKESO BIOPHARMA, published 2026)
Substitutions are numbered along the chain they refer to. Where “and” joins values, the source holds several entries; their conditions need not be identical. Equal entries are not always repeated.

T1: CTLA4 antigen on the surface of 293F-CTLA4 host cells (UniProt P16410 36-223, limits assumed)
T1 construct: whole, on cells
T1 sequence (looked up): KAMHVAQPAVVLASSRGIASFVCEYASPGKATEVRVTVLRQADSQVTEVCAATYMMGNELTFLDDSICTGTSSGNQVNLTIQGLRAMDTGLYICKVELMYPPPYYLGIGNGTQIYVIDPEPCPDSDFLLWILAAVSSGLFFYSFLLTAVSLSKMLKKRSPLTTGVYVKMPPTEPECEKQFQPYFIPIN

T2: human CTLA4 (human, UniProt P16410 36-161, limits assumed)
T2 construct: also called human CTLA4 antigen; CTLA4 protein
T2 sequence (looked up): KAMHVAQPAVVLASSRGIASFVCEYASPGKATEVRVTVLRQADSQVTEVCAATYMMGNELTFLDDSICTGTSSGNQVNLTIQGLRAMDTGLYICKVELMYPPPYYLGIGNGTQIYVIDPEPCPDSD

T3: CTLA4 antigen (NCBI Gene ID: 1493) obtained by TEV protease cleavage of CTLA4-mFc (Homo sapiens (Human), UniProt P16410 37-161)
T3 construct: also called the antigen CTLA4
T3 sequence: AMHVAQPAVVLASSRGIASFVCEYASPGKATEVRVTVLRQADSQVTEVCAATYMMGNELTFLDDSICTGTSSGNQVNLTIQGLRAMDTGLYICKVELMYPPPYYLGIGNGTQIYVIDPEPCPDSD

B1: control antibody 10D1 (antibody, V domains shown)
VH: QVQLVESGGGVVQPGRSLRLSCAASGFTFSSYTMHWVRQAPGKGLEWVTFISYDGNNKYYADSVKGRFTISRDNSKNTLYLQMNSLRAEDTAIYYCARTGWLGPFDYWGQGTLVTVSS
VL: not shown
B2: humanized antibody 8D2H2L2 (antibody, V domains shown)
VH: EVQLVESGGGLVQPGGSMRLSCAASGFTFSDNWMNWVRQAPGKGLEWLAQIRNKPYNYETYYSASVKGRFTISRDDSKNSVYLQMNSLKTEDTGVYYCTAQFAYWGQGTLVTVSS
VL: DIQMTQSPSSLSASVGDRVTITCRTSENIYGGLNWYQRKPGKSPKLLIYGATNLASGVSSRFSGSGSGTDYTLTISSLQPEDVATYYCQNVLRSPFTFGSGTKLEIK
notes: also called 8D2H2L2(20150327); 8D2H2L2(20140422)
B3: humanized antibody 8D2H1L1 (antibody, V domains shown)
VH: B2 VH with A64D
VL: B2 VL with P40Q, V58M, T74K, Q79H, E81D
B4: humanized antibody 8D2H2L15 (antibody, V domains shown)
VH: B2 VH
VL: B2 VL with R93S, S94R, P95H, F96P, T97G
B5: humanized antibody 8D2H2L17 (antibody, V domains shown)
VH: B2 VH
VL: B2 VL with R93S, P95R, F96P, T97G
B6: monoclonal antibody 8D2 (antibody, V domains shown)
VH: EVKLDETGGGLVQPGRPMKLSCVASGFTFSDNWMNWVRQSPEKGLEWLAQIRNKPYNYETYYSDSVKGRFTISRDDSKSSVYLQMNNLRGEDMGIYYCTAQFAYWGQGTLVTVSA
VL: DIQMTQSPASLSASVGETVTITCGTSENIYGGLNWYQRKQGKSPQLLIFGATNLADGMSSRFSGSGSGRQYSLKISSLHPDDVATYYCQNVLRSPFTFGSGTKLEI
notes: Mouse antibody purified from hybridoma supernatant; also called mAb 8D2; antibody secreted by the CTLA4-8D2 hybridoma cell line LT001

How the values were obtained:
CTLA4-mFc [1] = target: T4, CTLA4-mFc; test: competitive ELISA, competitor B7-1; control run with 8D2H2L2
T4 construct: also called CTLA4ECD-mFc fusion protein; CTLA4 antigen

CTLA4-mFc [2] = target: T4, CTLA4-mFc; test: competitive ELISA, competitor B7-2; control run with 8D2H2L17
CTLA4-mFc [3] = target: T4, CTLA4-mFc; test: competitive ELISA, CTLA4-mFc coated, competitor B7/2-His; antibody 1 µg/ml
Description: (§1) After incubation at 37° C. for 40 minutes, the enzyme conjugated secondary antibody was added. After incubation at 37° C. for 30 minutes, the absorbance at 450 nm was detected on an ELISA plate reader.

CTLA4-mFc [4] = target: T4, CTLA4-mFc; test: competitive ELISA, competitor B7-1; control run with 8D2H1L1
CTLA4-mFc [5] = target: T4, CTLA4-mFc; test: competitive ELISA, competitor B7-2; control run with 8D2H1L1
CTLA4-mFc [6] = target: T4, CTLA4-mFc; test: competitive ELISA, competitor B7-2; control run with 8D2(Re)
CTLA4-mFc [7] = target: T4, CTLA4-mFc; test: competitive ELISA, competitor B7-1; control run with 8D2H3L3
CTLA4-mFc [8] = target: T4, CTLA4-mFc; test: competitive ELISA, CTLA4-mFc coated, competitor B7/2-His; antibody 1 µg/ml diluted 1:3
Description: as §1

CTLA4-mFc [9] = target: T4, CTLA4-mFc; test: competitive ELISA, competitor B7-2; control run with 8D2H2L2
CTLA4-mFc [10] = target: T4, CTLA4-mFc; test: competitive ELISA, competitor B7-2; control run with 8D2H3L3
CTLA4-mFc [11] = target: T4, CTLA4-mFc; test: competitive ELISA, competitor B7-2; control run with 8D2H2L15
CTLA4-mFc [12] = target: T4, CTLA4-mFc; test: competitive ELISA, competitor B7-1; control run with 8D2H2L15
CTLA4-mFc [13] = target: T4, CTLA4-mFc; test: competitive ELISA, competitor B7-2; control run with 8D2
CTLA4-mFc [14] = target: T4, CTLA4-mFc; test: competitive ELISA, competitor B7-1; control run with 8D2H2L17
[15] = target: T1, CTLA4 antigen on the surface of …; test: flow cytometry, 293F-CTLA4 cells; antibody 0.001 nM
Description: (§2) After addition of 300 μL PBS, the fluorescent signal was detected using the FITC channel on the flow cytometer.

human CTLA4 [16] = target: T2, human CTLA4; test: ELISA on coated CTLA4, source Human
Description: (§3) The ELISA plate was coated with CTLA4 at 4° C. over night. […] The enzyme conjugated secondary antibody was added for incubation for 30 min. Then, the absorbance at 450 nm was determined on an ELISA plate reader.

[17] = target: T1, CTLA4 antigen on the surface of …; test: flow cytometry, 293F-CTLA4 cells; antibody 10 nM
Description: as §2

[18] = target: T1, CTLA4 antigen on the surface of …; test: flow cytometry, 293F-CTLA4 cells
Description: as §2

[19] = target: T1, CTLA4 antigen on the surface of …; test: flow cytometry, 293F-CTLA4 cells; antibody 5 nM
Description: as §2

[20] = target: T1, CTLA4 antigen on the surface of …; test: flow cytometry, 293F-CTLA4 cells; antibody 25 nM
Description: as §2

[21] = target: T3, CTLA4 antigen (NCBI Gene ID: 1493) …; test: BLI (Fortebio), antibody on AR2G sensor, CTLA4 in solution
Description: 2. […] After equilibration in PBST, the CTLA4 antigen was added for binding. […] Dissociation occurred in PBST.

[22] = target: T1, CTLA4 antigen on the surface of …; test: flow cytometry, 293F-CTLA4 cells; antibody 0.1 nM
Description: as §2

[23] = target: T1, CTLA4 antigen on the surface of …; test: flow cytometry, 293F-CTLA4 cells; antibody 0.01 nM
Description: as §2

[24] = target: T1, CTLA4 antigen on the surface of …; test: flow cytometry, 293F-CTLA4 cells; antibody 1 nM
Description: as §2

monkey CTLA4-hFc [25] = target: T5, monkey CTLA4-hFc (monkey); test: ELISA on coated CTLA4, source Monkey
T5 construct: also called monkey CTLA4 antigen
Description: as §3

monkey CTLA4-hFc [26] = target: T5, monkey CTLA4-hFc; test: ELISA, coat monkey CTLA4-hFc 0.25 ug/ml; antibody 0 (blank)
Description: as §3

human CTLA4 [27] = target: T2, human CTLA4; test: ELISA, coat human CTLA4 0.5 ug/ml; antibody 0 (blank)
Description: as §3

CTLA4-mFc [28] = target: T4, CTLA4-mFc; test: competitive ELISA, B7/1-hFc coated (competitor), CTLA4-mFc added; antibody 5 µg/ml
Description: as §1

CTLA4-mFc [29] = target: T4, CTLA4-mFc; test: competitive ELISA, competitor B7-1
Description: as §1
Target sequence in this assay (chain, as listed by the source limits assumed): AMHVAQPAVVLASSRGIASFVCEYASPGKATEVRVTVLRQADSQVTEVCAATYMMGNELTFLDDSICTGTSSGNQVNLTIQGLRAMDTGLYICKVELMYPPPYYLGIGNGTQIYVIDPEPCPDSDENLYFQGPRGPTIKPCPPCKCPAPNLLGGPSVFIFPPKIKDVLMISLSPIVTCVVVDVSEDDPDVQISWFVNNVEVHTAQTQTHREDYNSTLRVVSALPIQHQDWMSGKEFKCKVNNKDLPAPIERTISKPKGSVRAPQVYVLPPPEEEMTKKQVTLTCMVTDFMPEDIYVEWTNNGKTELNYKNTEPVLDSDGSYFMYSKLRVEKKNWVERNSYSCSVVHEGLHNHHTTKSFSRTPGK

CTLA4-mFc [30] = target: T4, CTLA4-mFc; test: competitive ELISA, competitor B7-2
Description: as §1
Target sequence in this assay (chain, as listed by the source limits assumed): as above

CTLA4-mFc [31] = target: T4, CTLA4-mFc; test: competitive ELISA, CTLA4-mFc coated, competitor B7/2-His; antibody 1 µg/ml diluted 1:81
Description: as §1

CTLA4-mFc [32] = target: T4, CTLA4-mFc; test: competitive ELISA, B7/1-hFc coated (competitor), CTLA4-mFc added; antibody 5 µg/ml diluted 1:3
Description: as §1

CTLA4-mFc [33] = target: T4, CTLA4-mFc; test: competitive ELISA, B7/1-hFc coated (competitor), CTLA4-mFc added; antibody 0 (no antibody)
Description: as §1

CTLA4-mFc [34] = target: T4, CTLA4-mFc; test: competitive ELISA, B7/1-hFc coated (competitor), CTLA4-mFc added; antibody 5 µg/ml diluted 1:9
Description: as §1

CTLA4-mFc [35] = target: T4, CTLA4-mFc; test: competitive ELISA, CTLA4-mFc coated, competitor B7/2-His; antibody 3 µg/ml diluted 1:27
Description: as §1

| Binder | absorbance at 450 nm (CTLA4-mFc [3]) | absorbance at 450 nm (CTLA4-mFc [8]) | fluorescence intensity [15] | fluorescence intensity [17] | EC50 [18] | fluorescence intensity [19] | fluorescence intensity [20] | Kd [21] | koff [21] | kon [21] | fluorescence intensity [22] | fluorescence intensity [23] | fluorescence intensity [24] | EC50 (CTLA4-mFc [29]) | EC50 (CTLA4-mFc [30]) | other results |
| --- | --- | --- | --- | --- | --- | --- | --- | --- | --- | --- | --- | --- | --- | --- | --- | --- |
| B1 | 0.05 | 0.07 | – | – | – | – | – | – | – | – | – | – | – | – | – | EC50 (CTLA4-mFc [1]): 5150 pM; EC50 (CTLA4-mFc [2]): 629 pM; EC50 (CTLA4-mFc [4]): 1910 pM; EC50 (CTLA4-mFc [5]): 464 pM; EC50 (CTLA4-mFc [6]): 464 pM; EC50 (CTLA4-mFc [7]): 5150 pM; EC50 (CTLA4-mFc [9]): 2060 pM; EC50 (CTLA4-mFc [10]): 2060 pM; EC50 (CTLA4-mFc [11]): 629 pM; EC50 (CTLA4-mFc [12]): 4590 pM; EC50 (CTLA4-mFc [13]): 464 pM; EC50 (CTLA4-mFc [14]): 4590 pM |
| B2 | – | – | 10.8 | 1160 | 4370 pM | 972 | 1130 | 955 pM | 0.000388 s⁻¹ | 407000 M⁻¹ s⁻¹ | 124 | 32.5 | 625 | – | – | EC50 (human CTLA4 [16]): 120 pM and 82 pM and 118 pM; EC50 (monkey CTLA4-hFc [25]): 227 pM; absorbance at 450 nm (monkey CTLA4-hFc [26]): 0.048 |
| B3 | – | – | 10.8 | 944 | 5060 pM | 559 | 1170 | 608 pM | 0.000207 s⁻¹ | 340000 M⁻¹ s⁻¹ | 21.2 | 10.8 | 103 | – | – | absorbance at 450 nm (human CTLA4 [27]): 0.067 |
| B4 | 0.05 | 0.05 | – | – | – | – | – | – | – | – | – | – | – | 1970 pM | 227 pM | absorbance at 450 nm (CTLA4-mFc [28]): 0.07; absorbance at 450 nm (CTLA4-mFc [31]): 0.75; absorbance at 450 nm (CTLA4-mFc [32]): 0.07 |
| B5 | 0.05 | 0.05 | – | – | – | – | – | – | – | – | – | – | – | 1790 pM | 296 pM | absorbance at 450 nm (CTLA4-mFc [33]): 1.18; absorbance at 450 nm (CTLA4-mFc [34]): 0.08 |
| B6 | – | – | – | – | – | – | – | – | – | – | – | – | – | 440 pM | 208 pM | absorbance at 450 nm (CTLA4-mFc [35]): 0.675 |
